Where no end group is shown, it is not given here. [ ]: non-standard residue; d: D form. pT = C[C@@H](OP(=O)(O)O)[C@H](N)C(=O)O
B1: peptide tau 210-219/pT212/pT217 (peptide)
peptide: SR[pT]PSLP[pT]PP
notes: Synthetic peptide (EZBiolabs)
B2: monoclonal antibody DC2E2 (antibody, V domains shown)
VH: EVQLQQSGAELVRPGALVKLSCKASGFNIKDYYMHWVRQRPDQGLEWIGWLDPENDHTIYDPRFQDRANLTADTSSNTAYLQLSSLTSEDTAVYYCSYYKYDDYWGQGTTLTVS
VL: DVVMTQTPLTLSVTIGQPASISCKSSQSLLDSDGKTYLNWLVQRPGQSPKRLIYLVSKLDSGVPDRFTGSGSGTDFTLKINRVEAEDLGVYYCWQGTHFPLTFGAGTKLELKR
notes: also called DC2E2 mAb; hybridoma ATCC PTA-124991
B3: peptide tau 210-220/pT212/pT217 (peptide)
peptide: SR[pT]PSLP[pT]PPT
notes: Synthetic peptide (EZBiolabs)
B4: peptide tau 181-210 (peptide)
peptide: TPPSSGEPPKSGDRSGYSSPGSPGTPGSRS
notes: Synthetic peptide (EZBiolabs)
B5: monoclonal antibody DC2E7 (antibody, V domains shown)
VH: DVQLVESGGGLVQPGGSRKLSCAASGFTFSSFGMHWVRQAPEKGLEWVAYISGDSNTIYYADTVKGRFTISRDNPKNTLFLQMTSLRSEDTAIYYCARTLAYWGQGTLVTVS
VL: DIQMTQSSSSFSVSLGDRVTITCKASEDIYNRLAWYQQTPGNAPSLLISGASGLETGVPSRFSGSGSGRDYTLSITSLQTEDVATYYCLQYWSIPWTFGGGTKLEIKR
notes: also called hybridoma ATCC PTA-124992
B6: peptide tau 210-218/pT212/pT217 (peptide)
peptide: SR[pT]PSLP[pT]P
notes: Synthetic peptide (EZBiolabs)
B7: peptide tau 171-200 (peptide)
peptide: IPAKTPPAPKTPPSSGEPPKSGDRSGYSSP
notes: Synthetic peptide (EZBiolabs)
B8: peptide tau 141-170 (peptide)
peptide: KAKGADGKTKIATPRGAAPPGQKGQANATR
notes: Synthetic peptide (EZBiolabs)
B9: peptide tau 161-190 (peptide)
peptide: GQKGQANATRIPAKTPPAPKTPPSSGEPPK
notes: Synthetic peptide (EZBiolabs)

What was measured:
[1] = target: B5; test: competition ELISA, peptide in solution with DC2E7, PHF-tau coated plate
[2] = target: T1, in vitro phosphorylated tau 2N4R (human, UniProt P10636 1-758, in vitro phosphorylated with rat brain kinase extract; sites not determined); test: immunoblot
T1 construct: also called phosphorylated 2N4R; 2N4R in vitro phosphorylated

[3] = target: T2, recombinant human full-length tau 2N4R (human, UniProt P10636 1-758); test: immunoblot
T2 construct: Expressed in E. coli, unphosphorylated; also called tau441; physiological tau (2N4R)

[4] = target: in vitro phosphorylated tau151-391 (human, UniProt P10636 468-708, in vitro phosphorylated with rat brain kinase extract; sites not determined); test: immunoblot
tau 1-242 = target: T3, tau 1-242 (human, UniProt P10636 1-559); test: ELISA screen of hybridoma supernatants on coated tau 1-242
T3 construct: Deletion mutant numbered on tau 2N4R

tau151-391 = tau151-391 (human, UniProt P10636 468-708); test: direct ELISA, coated recombinant tau, hybridoma supernatant
tau 31-441 = tau 31-441 (human, UniProt P10636 31-758); test: as above
[5] = target: recombinant human tau isoform 1N4R (human, UniProt P10636-7 1-412); test: as above
[6] = target: recombinant human tau isoform 0N3R (human, UniProt P10636-2 1-352); test: as above
[7] = target: recombinant human tau isoform 0N4R (human, UniProt P10636-6 1-383); test: as above
[8] = target: recombinant human tau isoform 2N3R (human, UniProt P10636-5 1-410); test: as above
tau 99-441 = tau 99-441 (human, UniProt P10636 99-758); test: as above
[9] = target: recombinant human tau isoform 1N3R (human, UniProt P10636-4 1-381); test: as above
tau 1-226 = tau 1-226 (human, UniProt P10636 1-543); test: as above
tau 127-441 = tau 127-441 (human, UniProt P10636 378-758); test: as above
tau 221-441 = target: T4, tau 221-441 (human, UniProt P10636 538-758); test: direct ELISA, coated recombinant tau (5 ug/ml), hybridoma supernatant
T4 construct: Unphosphorylated form used in the DC2E2 ELISA

tau 1-136 = tau 1-136 (human, UniProt P10636 1-387); test: as above
tau 2N4R(A134-168) = target: T5, tau 2N4R(A134-168) (human, UniProt P10636 1-758); test: as above
T5 construct: The printed 'A' is read as the delta sign (deletion of 134-168); also called tau 2N4R with residues 134-168 deleted

[10] = target: B2; test: competition ELISA, coated tau 1-242, peptide in solution
[11] = target: phosphorylated tau 221-441 (human, UniProt P10636 538-758, in vitro phosphorylated with rat brain kinase extract; sites not determined); test: immunoblot of in vitro phosphorylated deletion mutants
[12] = target: phosphorylated tau 2N4R point mutant Thr217Ala (human, UniProt P10636 1-758, in vitro phosphorylated with rat brain kinase extract; sites not determined); test: immunoblot of in vitro phosphorylated point mutants
[13] = target: B2; test: competition ELISA, coated tau 1-242, peptide in solution with purified DC2E2

phosphorylated tau 2N4R point mutant Thr217Ala, sequence (P10636 other isoform, or with tags, fused parts or gaps T217A T217A limits assumed): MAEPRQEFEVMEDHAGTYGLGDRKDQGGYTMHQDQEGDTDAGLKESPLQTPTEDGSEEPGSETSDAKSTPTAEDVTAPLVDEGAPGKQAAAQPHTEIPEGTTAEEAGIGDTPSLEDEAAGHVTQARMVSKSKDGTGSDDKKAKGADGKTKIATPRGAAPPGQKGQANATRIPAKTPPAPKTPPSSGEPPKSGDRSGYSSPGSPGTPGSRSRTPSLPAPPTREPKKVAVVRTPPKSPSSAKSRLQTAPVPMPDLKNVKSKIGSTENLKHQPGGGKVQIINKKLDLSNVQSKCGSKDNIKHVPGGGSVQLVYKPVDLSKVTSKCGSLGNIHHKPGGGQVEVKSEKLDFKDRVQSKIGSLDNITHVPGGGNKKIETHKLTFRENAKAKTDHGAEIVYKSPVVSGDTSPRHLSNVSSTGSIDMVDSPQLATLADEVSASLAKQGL
T4 sequence (P10636 538-758 I625L): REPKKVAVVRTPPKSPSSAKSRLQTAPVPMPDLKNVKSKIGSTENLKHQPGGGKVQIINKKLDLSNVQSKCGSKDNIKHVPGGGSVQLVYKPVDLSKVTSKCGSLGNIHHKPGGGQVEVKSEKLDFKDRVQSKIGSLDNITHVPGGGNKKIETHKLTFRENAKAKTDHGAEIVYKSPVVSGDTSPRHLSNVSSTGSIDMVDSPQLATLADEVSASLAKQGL
phosphorylated tau 221-441, sequence (P10636 538-758 I625L): as above
recombinant human tau isoform 1N4R, sequence (P10636 other isoform, or with tags, fused parts or gaps limits assumed): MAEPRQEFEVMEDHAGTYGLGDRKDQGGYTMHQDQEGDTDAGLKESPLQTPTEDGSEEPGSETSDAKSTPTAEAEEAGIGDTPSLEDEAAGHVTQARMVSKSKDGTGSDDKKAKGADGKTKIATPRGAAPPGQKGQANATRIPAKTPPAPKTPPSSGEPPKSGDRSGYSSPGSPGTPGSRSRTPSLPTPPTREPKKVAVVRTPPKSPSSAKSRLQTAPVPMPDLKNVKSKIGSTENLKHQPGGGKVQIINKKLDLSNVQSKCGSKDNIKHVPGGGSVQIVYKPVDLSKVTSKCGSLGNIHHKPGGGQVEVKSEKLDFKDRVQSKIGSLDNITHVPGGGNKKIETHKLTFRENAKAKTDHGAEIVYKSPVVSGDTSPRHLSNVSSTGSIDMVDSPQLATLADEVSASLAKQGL
T3 sequence (P10636 other isoform, or with tags, fused parts or gaps): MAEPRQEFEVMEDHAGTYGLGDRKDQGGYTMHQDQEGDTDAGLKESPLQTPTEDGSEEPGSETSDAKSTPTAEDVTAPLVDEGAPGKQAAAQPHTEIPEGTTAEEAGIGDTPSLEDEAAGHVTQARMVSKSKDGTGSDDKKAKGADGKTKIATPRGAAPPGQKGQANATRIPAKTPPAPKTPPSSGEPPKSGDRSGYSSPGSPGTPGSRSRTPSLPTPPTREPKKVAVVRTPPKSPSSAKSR
tau 31-441, sequence (P10636 other isoform, or with tags, fused parts or gaps): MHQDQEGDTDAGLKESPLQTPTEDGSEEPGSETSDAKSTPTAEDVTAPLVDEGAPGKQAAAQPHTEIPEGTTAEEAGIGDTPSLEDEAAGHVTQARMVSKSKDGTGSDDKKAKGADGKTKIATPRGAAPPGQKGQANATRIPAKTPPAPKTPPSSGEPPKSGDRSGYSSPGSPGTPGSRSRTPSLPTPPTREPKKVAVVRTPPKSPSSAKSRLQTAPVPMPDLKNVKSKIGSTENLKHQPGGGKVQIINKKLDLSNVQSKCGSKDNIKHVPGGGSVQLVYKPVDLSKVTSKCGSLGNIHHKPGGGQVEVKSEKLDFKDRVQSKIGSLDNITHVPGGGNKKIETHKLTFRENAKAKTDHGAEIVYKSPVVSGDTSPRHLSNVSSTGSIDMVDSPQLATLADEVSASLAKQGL
recombinant human tau isoform 0N4R, sequence (P10636 other isoform, or with tags, fused parts or gaps limits assumed): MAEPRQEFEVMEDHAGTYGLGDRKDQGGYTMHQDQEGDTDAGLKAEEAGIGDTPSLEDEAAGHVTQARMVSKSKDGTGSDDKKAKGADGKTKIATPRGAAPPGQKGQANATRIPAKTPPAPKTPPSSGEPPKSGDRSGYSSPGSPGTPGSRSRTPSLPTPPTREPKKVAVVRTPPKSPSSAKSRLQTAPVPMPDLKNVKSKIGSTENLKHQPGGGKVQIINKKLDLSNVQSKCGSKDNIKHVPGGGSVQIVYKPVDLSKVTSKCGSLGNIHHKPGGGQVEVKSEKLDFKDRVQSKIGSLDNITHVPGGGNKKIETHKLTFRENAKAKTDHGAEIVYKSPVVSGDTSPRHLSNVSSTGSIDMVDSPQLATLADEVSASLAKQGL
T2 sequence (P10636 other isoform, or with tags, fused parts or gaps limits assumed): as the sequence (P10636 other isoform, or with tags, fused parts or gaps T217A T217A limits assumed) above, with A217T counted along it
T1 sequence (P10636 other isoform, or with tags, fused parts or gaps limits assumed): as the sequence (P10636 other isoform, or with tags, fused parts or gaps T217A T217A limits assumed) above, with A217T counted along it
recombinant human tau isoform 2N3R, sequence (P10636 other isoform, or with tags, fused parts or gaps limits assumed): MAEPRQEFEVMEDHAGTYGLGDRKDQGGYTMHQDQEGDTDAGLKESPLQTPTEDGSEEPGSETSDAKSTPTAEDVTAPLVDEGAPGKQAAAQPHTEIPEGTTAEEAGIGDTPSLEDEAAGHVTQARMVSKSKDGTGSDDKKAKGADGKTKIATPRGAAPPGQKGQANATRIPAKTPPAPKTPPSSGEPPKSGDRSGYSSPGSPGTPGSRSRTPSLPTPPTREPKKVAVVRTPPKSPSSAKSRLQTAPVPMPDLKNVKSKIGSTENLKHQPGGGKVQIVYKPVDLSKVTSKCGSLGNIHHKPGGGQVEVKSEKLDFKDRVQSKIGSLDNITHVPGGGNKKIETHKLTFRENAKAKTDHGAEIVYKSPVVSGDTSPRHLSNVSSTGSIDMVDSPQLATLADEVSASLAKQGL
recombinant human tau isoform 0N3R, sequence (P10636 other isoform, or with tags, fused parts or gaps limits assumed): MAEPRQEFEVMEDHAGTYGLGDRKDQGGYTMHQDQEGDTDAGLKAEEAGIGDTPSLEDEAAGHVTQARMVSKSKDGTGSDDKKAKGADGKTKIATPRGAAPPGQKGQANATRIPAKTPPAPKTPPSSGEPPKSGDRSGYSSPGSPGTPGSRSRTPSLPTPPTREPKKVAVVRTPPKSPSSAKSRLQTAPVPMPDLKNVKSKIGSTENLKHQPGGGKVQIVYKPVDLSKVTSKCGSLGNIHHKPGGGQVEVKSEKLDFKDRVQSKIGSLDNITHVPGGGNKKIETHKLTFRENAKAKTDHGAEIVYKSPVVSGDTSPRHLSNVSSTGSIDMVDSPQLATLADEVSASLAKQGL
tau 127-441, sequence (P10636 other isoform, or with tags, fused parts or gaps): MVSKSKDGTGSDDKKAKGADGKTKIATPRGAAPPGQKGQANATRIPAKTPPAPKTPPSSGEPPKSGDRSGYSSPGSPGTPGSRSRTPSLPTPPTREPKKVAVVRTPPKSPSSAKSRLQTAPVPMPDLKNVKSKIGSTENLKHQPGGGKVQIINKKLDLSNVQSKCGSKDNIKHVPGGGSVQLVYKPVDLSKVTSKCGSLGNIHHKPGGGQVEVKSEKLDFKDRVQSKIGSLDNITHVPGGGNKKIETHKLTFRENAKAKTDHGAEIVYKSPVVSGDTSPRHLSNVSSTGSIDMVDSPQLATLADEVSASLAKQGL
recombinant human tau isoform 1N3R, sequence (P10636 other isoform, or with tags, fused parts or gaps limits assumed): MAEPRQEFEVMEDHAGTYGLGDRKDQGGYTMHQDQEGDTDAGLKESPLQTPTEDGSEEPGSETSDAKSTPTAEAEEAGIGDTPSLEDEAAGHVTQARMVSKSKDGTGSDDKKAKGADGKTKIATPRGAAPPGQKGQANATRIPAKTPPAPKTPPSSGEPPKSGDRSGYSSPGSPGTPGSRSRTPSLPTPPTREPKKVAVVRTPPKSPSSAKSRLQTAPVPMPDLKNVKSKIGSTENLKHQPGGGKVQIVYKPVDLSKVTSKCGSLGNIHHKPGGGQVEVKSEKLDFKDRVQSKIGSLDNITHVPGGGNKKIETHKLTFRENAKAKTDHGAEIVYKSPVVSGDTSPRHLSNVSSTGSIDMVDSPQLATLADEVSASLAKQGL

Binder: B1
binding result [1]: no binding

Binder: B2
binding result [2]: binds | binding result [3]: binds | binding result [4]: binds | binding result (tau 1-242): binds | binding result (tau151-391): binds | binding result (tau 31-441): binds | binding result [5]: binds | binding result [6]: binds | binding result [7]: binds | binding result [8]: binds | binding result (tau 99-441): binds | binding result [9]: binds | binding result (tau 1-226): binds | binding result (tau 127-441): binds | binding result (tau 221-441): no binding | binding result (tau 1-136): no binding | binding result (tau 2N4R(A134-168)): no binding

Binder: B3
binding result [1]: no binding

Binder: B4
binding result [10]: no binding

Binder: B5
binding result [11]: no binding | binding result [12]: no binding

Binder: B6
binding result [1]: no binding

Binder: B7
binding result [10]: no binding

Binder: B8
binding result [10]: no binding

Binder: B9
binding result [13]: binds

From patent WO2019186276A2 (dated 2019)
